This note sets out measurements from patent US6828121.

In the data set the target is humanized anti-CD18 kappa light chain.

B1: Prc protease (periplasmic C-terminal processing protein) (protein)
chain: VEDITRADQIPVLKEETQHATVSERVTSRFTRSHYRQFDLDQAFSAKIFDRYLNLLDYSHNVLLASDVEQFAKKKTELGDELRSGKLDVFYDLYNLAQKRRFERYQYALSVLEKPMDFTGNDTYNLDRSKAPWPKNEAELNALWDSKVKFDELSLKLTGKTDKEIRETLTRRYKFAIRRLAQTNSEDVFSLAMTAFAREIDPHTNYLSPRNTEQFNTEMSLSLEGIGAVLQMDDDYTVINSMVAGGPAAKSKAISVGDKIVGVGQTGKPMVDVIGWRLDDVVALIKGPKGSKVRLEILPAGKGTKTRTVTLTRERIRLEDRAVKMSVKTVGKEKVGVLDIPGFYVGLTDDVKVQLQKLEKQNVSSVIIDLRSNGGGALTEAVSLSGLFIPAGPIVQVRDNNGKVREDSDTDGQVFYKGPLVVLVDRFSASASEIFAAAMQDYGRALVVGEPTFGKGTVQQYRSLNRIYDQMLRPEWPALGSVQYTIQKFYRVNGGSTQRKGVTPDIIMPTGNEETETGEKFEDNALPWDSIDAATYVKSGDLTAFEPELLKEHNARIAKDPEFQNIMKDIARFNAMKDKRNIVSLNYAVREKENNEDDATRLARLNERFKREGKPELKKLDDLPKDYQEPDPYLDETVNIALDLAKLEKARPAEQPAPVK
As for B1, the “kappa LC cleavage (LC clips on 1-D/2-D gels and peak 1 of the AME5/RP assay in prc-plus against prc-deletion strains)” value was “Here it is shown that Prc is the only protease involved in kappa LC cleavage inside E. coli cells”.
